Reference: patent publication US20240166765A1 (ICONIC THERAPEUTICS, published 2024)
Changes are numbered by the printed parent chain.

T1: pig TF-His (pig (Sus scrofa))
T1 construct: also called pig TF ECD-His; pTF
T1 chain: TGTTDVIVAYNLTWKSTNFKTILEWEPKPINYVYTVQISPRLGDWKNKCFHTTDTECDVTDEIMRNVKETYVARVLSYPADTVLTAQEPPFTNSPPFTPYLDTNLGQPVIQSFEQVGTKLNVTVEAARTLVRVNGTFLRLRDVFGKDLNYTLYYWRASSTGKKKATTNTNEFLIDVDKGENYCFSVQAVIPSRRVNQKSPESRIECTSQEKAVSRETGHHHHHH

B1: 25G (antibody, human IgG1, kappa, V domains shown)
VH: QVQLVQSGAEVKKPGASVKVSCKASGYTFRSYGISWVRQAPGQGLEWMGWVAPYNGNTNYAQKLQGRVTMTTDTSTSTAYMELRSLRSDDTAVYYCARDAGTYSPYGYGMDVWGQGTTVTVSS
VL: DIQMTQSPSTLSASVGDRVTITCRASQSISSWLAWYQQKPGKAPKLLIYKASSLESGVPSRFSGSGSGTEFTLTISSLQPDDFATYYCQQFQSLPPFTFGGGTKVEIKR
notes: Human IgG1; also called antibody 25G
B2: 25A (antibody, V domains shown)
VH: B1 VH with R30D, S31V, V51I, Y106F
VL: DIQMTQSPSTLSASVGDRVTITCRASQSISSWLAWYQQKPGKAPKLLIYKASSLESGVPSRFSGSGSGTEFTLTISSLQPDDFATYYCQQFQSLPPFTFGGGTKVEIK
notes: Human anti-TF IgG1
B3: 25G9 (antibody, human IgG1, kappa, V domains shown)
VH: B1 VH with N55S
VL: B1 VL with R24Q, S30D, K50S, S53Y, Q90R
notes: Human IgG1; also called antibody 25G9
B4: 25G1 (antibody, human IgG1, kappa, V domains shown)
VH: B1 VH with N55S
VL: B1 VL with Q27H, S30D, S53Y, Q90L
notes: Human IgG1; also called antibody 25G1
B5: 25A5 (antibody, human IgG1, kappa, V domains shown)
VH: B1 VH with R30D, S31V, V51I, N55S, Y106F
VL: B1 VL with Q27E, S31N, S52Y, S56Y, S93K
notes: Human IgG1; also called antibody 25A5
B6: 25A5-T (antibody, human IgG1, kappa, V domains shown)
VH: B1 VH with R30D, S31A, V51I, N55S, Y106F
VL: B1 VL with Q27E, S31N, S52Y, S56Y, S93K
notes: Human IgG1

Assays:
pig TF-His = molecular target: T1, pig TF-His; assay: SPR (Biacore), antibody captured by anti-human IgG on CM5 chip, pig TF-His in solution, 1:1 model
rabbit TF-His = molecular target: T2, rabbit TF-His (rabbit (Oryctolagus cuniculus), UniProt P24055 33-250); assay: SPR (Biacore), antibody captured by anti-human IgG on CM5 chip, rabbit TF-His in solution, 1:1 model
T2 construct: also called rabbit TF ECD-His

[1] = molecular target: T3, human Tissue Factor on MDA-MB-231 cells (human, UniProt P13726 33-295); assay: flow cytometry, MDA-MB-231 cells; binding of 20 nM FVII-Fc-Alexa488 (competitor) left at 250 nM Ab
T3 construct: also called TF; hTF

[2] = molecular target: T3, human Tissue Factor on MDA-MB-231 cells; assay: cell-based or functional assay
[3] = molecular target: T3, human Tissue Factor on MDA-MB-231 cells; assay: flow cytometry, MDA-MB-231 cells; binding of 20 nM FVII-Fc-Alexa488 (competitor) left at 9.25 nM Ab
[4] = molecular target: T3, human Tissue Factor on MDA-MB-231 cells; assay: flow cytometry, MDA-MB-231 cells; binding of 20 nM FVII-Fc-Alexa488 (competitor) left at 83 nM Ab

T2 sequence (P24055 other isoform, or with tags, fused parts or gaps): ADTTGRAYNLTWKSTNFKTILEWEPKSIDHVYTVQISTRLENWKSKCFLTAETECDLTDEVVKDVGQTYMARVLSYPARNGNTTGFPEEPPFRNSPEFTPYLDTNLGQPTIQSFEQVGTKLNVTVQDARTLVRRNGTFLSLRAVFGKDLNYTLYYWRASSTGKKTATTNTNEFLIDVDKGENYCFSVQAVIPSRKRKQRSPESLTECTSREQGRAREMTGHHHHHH

Row | Binder | Kd (pig TF-His) [nM] | Kd (rabbit TF-His) [nM] | further results
1 | B1 | 26 | 75.5 | –
2 | B2 | – | – | % FVIIa [1]: 98%; % IL8, 2.56 nM Ab [2]: 43%; % IL8, 6.4 nM Ab [2]: 11%; % IL8, 16 nM Ab [2]: 10%; % IL8, 40 nM Ab [2]: 8%; % IL8, 100 nM Ab [2]: 9%; % FVIIa [3]: 100%; % FVIIa [4]: 97%
3 | B3 | 3.3 | 4.2 | –
4 | B4 | 2.6 | 3.6 | –
5 | B5 | 5.2 | 5.4 | –
6 | B6 | 4.5 | 5.4 | –
